Measurements taken from paper PMC6426973, “Oligomeric self-association contributes to E2A-PBX1-mediated oncogenesis”.

Target: T1, E2A-PBX1 ΔPBC-B (MBP fusion) (UniProt P15923 1-483+P40424:232-430, internal_change)
T1 sequence: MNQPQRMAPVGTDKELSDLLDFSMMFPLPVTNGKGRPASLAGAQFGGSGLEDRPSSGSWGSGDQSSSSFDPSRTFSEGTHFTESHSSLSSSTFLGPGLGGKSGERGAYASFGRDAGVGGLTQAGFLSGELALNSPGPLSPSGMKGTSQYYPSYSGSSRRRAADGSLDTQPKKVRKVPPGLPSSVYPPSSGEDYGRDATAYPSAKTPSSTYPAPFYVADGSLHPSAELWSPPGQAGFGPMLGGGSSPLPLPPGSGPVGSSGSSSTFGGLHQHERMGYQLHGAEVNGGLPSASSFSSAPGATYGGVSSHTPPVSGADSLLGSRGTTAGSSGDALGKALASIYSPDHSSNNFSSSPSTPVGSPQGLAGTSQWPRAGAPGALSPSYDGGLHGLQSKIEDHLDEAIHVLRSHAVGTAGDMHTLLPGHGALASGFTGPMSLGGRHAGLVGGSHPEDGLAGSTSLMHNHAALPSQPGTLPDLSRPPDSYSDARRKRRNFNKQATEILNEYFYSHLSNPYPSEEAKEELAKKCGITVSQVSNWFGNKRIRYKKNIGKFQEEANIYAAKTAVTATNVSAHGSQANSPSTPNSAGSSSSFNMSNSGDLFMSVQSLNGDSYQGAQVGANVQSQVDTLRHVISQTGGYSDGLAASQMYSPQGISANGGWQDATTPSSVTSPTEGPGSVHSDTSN
Assay: EMSA; LightShift Chemiluminescent EMSA kit (manufacturer's conditions), room temperature 20 min, 5% TBE gel in 0.5X TBE; salt and pH not stated
Conditions: protein: recombinant; tags: MBP; label: biotin (end label); blunt

B1: PBX1 consensus site oligonucleotide (dsDNA)
DNA 1: TGATTGATTGATTGAT
DNA 2: ATCAATCAATCAATCA
Q: Does B1 bind?
A: no binding
